The nanobody polyreactivity screen of Harvey et al. (2022)

Experiment: yeast display, Sf9 membrane polyspecificity reagent, FACS + sequencing; frameworks hold sequencing errors
In short: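 Genes from sorted yeast were amplified by colony PCR, read by MiSeq 2 × 250 sequencing and filtered on CDR length. These cells carried a synthetic nanobody library in Saccharomyces cerevisiae BJ5465 and were sorted by FACS into low and high (top ~1%) gates on anti-HA and streptavidin fluorescence. Polyreactivity is labelled according to the gate of origin.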

Which “polyreactivity (PSR sort gate)” value does the source give for “QVQLVESGGGLVQAGGSLRLSCAASGRIFWLNAMGWYRQAPGKEREFVASITYGSDSTYYADSVKGRFTISRDNAKNTVYLHMNSLKPEDTAVYYCNREGWHYGPYGYWGQGTQVTVSS” here?
The value was “low polyreactivity”.

Which “polyreactivity (PSR sort gate)” value does the source give for “QVQLVESGGGLVQAGGSLRLSCAASGRIFWSNAMGWYRQAPGKERELVATISSGGRTYYADSVKGRFTISRDNAKNTVYLQMNSLKPEDTAVYYCAAVTFWFWPGMDYWGQGTQVTVSS” here?
The value was “low polyreactivity”.

For “QVQLVESGGGLVQAGGSLRLSCAASGRIFWSYAMGWYRQAPGKEREFVAVITWSGGSTYYADSVKGRFTISRDNAKNTVYLQMNSLKPEDTAVYYCAAGQWWYQVRFDYWGQGTQVTVSS”, which “polyreactivity (PSR sort gate)” value is on record?
The value was “low polyreactivity”.

Which “polyreactivity (PSR sort gate)” value does the source give for “QVQLVESGGGLVQAGGSLRLSCAASGRIFWSYAMGWYRQAPGKEREFVAVITWSGGSTYYADSVKGRFTISREYAKNTVYLEMNSLKPEDTAVYYCKADYYGPYRDYGYWGQGTQVTVSS” here?
Its value is “low polyreactivity”.

With “QVQLVESGGGLVQAGGSLRLSCAASGRIFWSYGMGWYRQAPGKERELVAAITNTGDGTYYADSVKGRFTISRDNAKNTVYLQMNSLKPEDTAVYYCAVDYRGYWYWEYDYWGQGTQVTVSS” as the sequence, how does the “polyreactivity (PSR sort gate)” value read?
Its value is “high polyreactivity”.

With “QVQLVESGGGLVQAGGSLRLSCAASGRIFWVNAMGWYRKAPGKERELVARIRGRSGSTYYADSVKGRFTISRDNAKNPVYLQMNSLKREDTAVYYCAAREFRRPDIFLRDYWGQGTQVTVSS” as the sequence, how does the “polyreactivity (PSR sort gate)” value read?
Its value is “high polyreactivity”.

With “QVQLVESGGGLVQAGGSLRLSCAASGRIFWVYAMGWYRQAPGKEREFVADITWTGGSTYYADSVKGRFTISRDNAKNTVYLQMNSLKPEDTAVYYCAADSWSNYDYWGQGTQVTVSS” as the sequence, how does the “polyreactivity (PSR sort gate)” value read?
Its value is “high polyreactivity”.

For “QVQLVESGGGLVQAGGSLRLSCAASGRIFWWYAMGWYRQAPGKERELVAAISTGSRTYYADSVKGRFTISRDNAKNTVYLQMNSLKPEDTAVYYCNKDYWYGYSDFDYWGQGTQVTVSS”, which “polyreactivity (PSR sort gate)” value is on record?
The value was “low polyreactivity”.

For “QVQLVESGGGLVQAGGSLRLSCAASGRIFWYNAMGWYRQAPGKERELVATITSAGDTNYADSVKGRFTISRDNAKNTVFLQMNSLKPEDTAVYYCAKYYRWLITRRGSNDYWGQGTQVTVSS”, which “polyreactivity (PSR sort gate)” value is on record?
The value was “high polyreactivity”.

For “QVQLVESGGGLVQAGGSLRLSCAASGRIFWYYAMGGYRQAPGKERELVASITSGGRTKYADSVKGRFTISRDNAKNTVYLQMNSLKPEDTAVYYCAARLLIDYHADWWVAYDYWGQGTQVTVSS”, which “polyreactivity (PSR sort gate)” value is on record?
The value was “low polyreactivity”.

For “QVQLVESGGGLVQAGGSLRLSCAASGRIFWYYAMGWYRQAPGKEREFVAAITRRGGSTYYADSVKGRFTISRDNAKNTVYLQMNSLKPEDTAVYYCAAVGQKRSLGYSWGQGTQVTVSS”, which “polyreactivity (PSR sort gate)” value is on record?
The value was “low polyreactivity”.

With “QVQLVESGGGLVQAGGSLRLSCAASGRIFWYYGMGWYRQAPGKERELVASIRSGGSTNYADSVKGRFTISRDNAKNSVYLQMNSLKPEDTAVYYCAARPDYRYHYWGQGTQVTVSS” as the sequence, how does the “polyreactivity (PSR sort gate)” value read?
The value was “high polyreactivity”.

Which “polyreactivity (PSR sort gate)” value does the source give for “QVQLVESGGGLVQAGGSLRLSCAASGRIFYANAMGWYRQAPGKERELVASISTTGDSTYYADSVKGRFTISRDNAKNTDYLQMNSLKPEDTAVYYCNTRGSEYLWYGYDYWGQGTQVTVSS” here?
Its value is “low polyreactivity”.

For “QVQLVESGGGLVQAGGSLRLSCAASGRIFYAYAMGWYRQAPGKERELVAAITFSGGSTYADSVKGRFTISRDNAKNTVYLQMNSLKPEDTAVYYCAADFGRHPRDYDYYWGQGTQVTVSL”, which “polyreactivity (PSR sort gate)” value is on record?
Its value is “low polyreactivity”.

With “QVQLVESGGGLVQAGGSLRLSCAASGRIFYAYTMGWYRQAPGKERELVAAISGSGSTYYADSVKGRFTISRDNAKNTVYLQMNSLKPEDTAVYYCAADVTGGRKYDYWGQGTQVTVSS” as the sequence, how does the “polyreactivity (PSR sort gate)” value read?
The value was “low polyreactivity”.

Which “polyreactivity (PSR sort gate)” value does the source give for “QVQLVESGGGLVQAGGSLRLSCAASGRIFYDNAMGWYRQAPGKERELVAAIRIGGSTNYADSVKGRFTISRDNAKNTVYLQMNSLKPEDTAVYYCNGSDNPDSYYPDSVWGDSWGQGSQVTVSS” here?
The value was “low polyreactivity”.

For “QVQLVESGGGLVQAGGSLRLSCAASGRIFYFNAMGWYRQAPGKEREFVASINSIGDSTYYADSVKGRFTISRDNAKNTVYLHMNSLKPEDTAVYYCNADHGVINYRLDYWGQGTQVTVSS”, which “polyreactivity (PSR sort gate)” value is on record?
The value was “low polyreactivity”.

For “QVQLVESGGGLVQAGGSLRLSCAASGRIFYFNAMGWYRQAPGKERELDAAISWSGGSTYYADSVKGRFTISRDNAKNTVYLQMNSLKPEDTAVYSCATDSYRQGDYYRGRVDYWGQGTQVTVSS”, which “polyreactivity (PSR sort gate)” value is on record?
The value was “low polyreactivity”.

Which “polyreactivity (PSR sort gate)” value does the source give for “QVQLVESGGGLVQAGGSLRLSCAASGRIFYFYAMGWYRQAPGKERELVASISSGSSTNYADSVKGRFTISRDNAKNTVYLQMNSLKPEDTAVYYCAAQPWHGSRARSYYWGQGTQVTVSS” here?
Its value is “high polyreactivity”.

For “QVQLVESGGGLVQAGGSLRLSCAASGRIFYGNAMGWYRQAPGKERELVAVITSSGGSTYYADSVKGRFTISRDNAKNTVYLQMNSLKPEDTAVYYCAKYYRHWYTHLGYDYWGQGTQVTVSS”, which “polyreactivity (PSR sort gate)” value is on record?
The value was “high polyreactivity”.

Which “polyreactivity (PSR sort gate)” value does the source give for “QVQLVESGGGLVQAGGSLRLSCAASGRIFYGNAMGWYRQAPGKEREWVAAISSGTSTNYADSVKGRFTISRDNAKNTVFLQMNSLKPEDTAVYYCADGSYSRYLYSLYFDFDYWGQGTQVTVSS” here?
The value was “low polyreactivity”.

For “QVQLVESGGGLVQAGGSLRLSCAASGRIFYGNTMGWYRQAPGQERELVATITRSGGSTYYADSVKGRFTISRDNAKNTVYLQMNNLKPEDTAVYYCAVGYWRLFPYGYWGQGTQVTVSS”, which “polyreactivity (PSR sort gate)” value is on record?
The value was “high polyreactivity”.

With “QVQLVESGGGLVQAGGSLRLSCAASGRIFYGNVMGWYRQAPGKERELVAVITSGGNTNYADSVKGRFTISRDNAKNTVYLQMNSLKPEDTAVYYCATAVVAGVWGYDYWGQGTQVTVSS” as the sequence, how does the “polyreactivity (PSR sort gate)” value read?
The value was “low polyreactivity”.

With “QVQLVESGGGLVQAGGSLRLSCAASGRIFYGYAKGWYRQAPGKERELVASISRRGYSTYYADSVKGRFTISRDNAKNTVYLQMNSLKPEDTAVYYCAAGYYPFNYWCQGTQVTVSS” as the sequence, how does the “polyreactivity (PSR sort gate)” value read?
Its value is “high polyreactivity”.

For “QVQLVESGGGLVQAGGSLRLSCAASGRIFYGYAMGWYRQAPGKERELVAAISSGGITYYADSVKGRFTISRDNAKNTVYLQMNSLKPEDTAVYYCAAEPWYKFDYDYWGQGTQVTVSS”, which “polyreactivity (PSR sort gate)” value is on record?
Its value is “low polyreactivity”.

For “QVQLVESGGGLVQAGGSLRLSCAASGRIFYGYAMGWYRQAPGKERELVAAISWRGGRTYYADSVKGRFTISRDNAKNTVYLQMNSLKPEDTAVYYCAVRWPSARIPVKLDYWGQGTQVTVSS”, which “polyreactivity (PSR sort gate)” value is on record?
The value was “high polyreactivity”.

For “QVQLVESGGGLVQAGGSLRLSCAASGRIFYGYAMGWYRQAPGKERELVAAITSGSRTNYADSVKGRFTISRDNAKNTVYLQMNSLKPEDTAVYDCHSRYGSYLYSLVHNTRYDYWGQGTQVTVSS”, which “polyreactivity (PSR sort gate)” value is on record?
Its value is “low polyreactivity”.

With “QVQLVESGGGLVQAGGSLRLSCAASGRIFYGYAMGWYRQAPGKEWELVAAITDSGGITYYADSVKGRFTISRDNAKKTVYLQLNSLKPEDTAVYYCTALVRDPAWLSRVGYSGDYWGQGTQVTVSS” as the sequence, how does the “polyreactivity (PSR sort gate)” value read?
Its value is “high polyreactivity”.

With “QVQLVESGGGLVQAGGSLRLSCAASGRIFYGYDMGWYRQAPGKERELVAAITRGVSTYYADSVKGRFTISRDNAKNTVYLQMNSLKPEDTAVYYCAADLSPYVNYWWEYYYWGQGTQVTVSS” as the sequence, how does the “polyreactivity (PSR sort gate)” value read?
The value was “low polyreactivity”.

With “QVQLVESGGGLVQAGGSLRLSCAASGRIFYGYTMGWYRQAPGKERELVAAITWSGGSTHYADSVKGRFTISRDNAKNTVYLQMNSLKPEDTAVYYCNARRRSVYRGLYDYWGQGTQVTVSS” as the sequence, how does the “polyreactivity (PSR sort gate)” value read?
The value was “high polyreactivity”.

Which “polyreactivity (PSR sort gate)” value does the source give for “QVQLVESGGGLVQAGGSLRLSCAASGRIFYGYTMVWYRQAPGKERELVAAISWSGGSTSYADSVKGRFTISRDNAKNTVYLQMKSMKPEDTAVYYCAVRYPGYRQYWGYTYDYWGQGTQVTVSS” here?
Its value is “high polyreactivity”.

For “QVQLVESGGGLVQAGGSLRLSCAASGRIFYHYAMGWYRQAPGKERELVAVIRSTGSTNYADSVKGRFTISRDNAKNTVYLQMNSLKPEDTAVYYCAVRRATYSYWYFNGGYWGQGTQVTVSS”, which “polyreactivity (PSR sort gate)” value is on record?
The value was “high polyreactivity”.

With “QVQLVESGGGLVQAGGSLRLSCAASGRIFYIIAMVWYRQAPGKEWELVASITGSGGRTYYADSVKGRFTISRDNAKNTVYLQMNSLKPEDTAVYYCNADLYVGYLYYLYDYWGQGTQVTVSS” as the sequence, how does the “polyreactivity (PSR sort gate)” value read?
The value was “low polyreactivity”.

Which “polyreactivity (PSR sort gate)” value does the source give for “QVQLVESGGGLVQAGGSLRLSCAASGRIFYINAMGWYRQAPGKERELVAAISWSGSSTYYADSVKGRFTISRDNAKNTIYLQMNSLKPEDTAVYYCATVYYDNHYSAGYDYRGQGTQVTVSS” here?
The value was “high polyreactivity”.

With “QVQLVESGGGLVQAGGSLRLSCAASGRIFYIYAMGWYRQAPGKERELVAAISSGGTTNYADSVKGRFTISRDNAKNTVYLQMNSLKPEDTSVDYCNAVRGEKMGYWGQGTQVTVSS” as the sequence, how does the “polyreactivity (PSR sort gate)” value read?
The value was “high polyreactivity”.

For “QVQLVESGGGLVQAGGSLRLSCAASGRIFYKYAMGWYRQAPGKERELVAGISRRGGTTNYADSVKGRFTNSRDNAKNTVYLQMNSLKPEDTAVYYCAVRPLYDRRYTAVRRYDYWGQGTQVTVSS”, which “polyreactivity (PSR sort gate)” value is on record?
Its value is “high polyreactivity”.

With “QVQLVESGGGLVQAGGSLRLSCAASGRIFYLKVMGWYRQEPGKERELVAAITRRDVTTYADSVKGRFTISRDNAKNTVYLQMNSLKPEDTAVYYCNADSPSLSGDYWGQGTQVTVSS” as the sequence, how does the “polyreactivity (PSR sort gate)” value read?
The value was “low polyreactivity”.

For “QVQLVESGGGLVQAGGSLRLSCAASGRIFYLNVMGWYRQAPGKERELVAAITRRDVTTYADSVKGRFTISRDNAKNTVYLQMNSLKPEDTAVYYCNAVYYNWIGFDYSGQGTQVTVSS”, which “polyreactivity (PSR sort gate)” value is on record?
The value was “low polyreactivity”.

With “QVQLVESGGGLVQAGGSLRLSCAASGRIFYLYAMGWYRQAPGKERELVAAITNSDTSTYYADSVKGRFTISRDNAKNTVYLQMNSLKPEDTAVYYCAVSTQYYYFDYYYWGQGTQVTVSS” as the sequence, how does the “polyreactivity (PSR sort gate)” value read?
Its value is “high polyreactivity”.

For “QVQLVESGGGLVQAGGSLRLSCAASGRIFYLYAMGWYRQAPGKERELVAAITWSGGSTTYADSVKGRFTISRDNAKNTFYLQMNSLKPEDTAVYYCNADGWSFPSFSPMDYWGQGTQVTVSS”, which “polyreactivity (PSR sort gate)” value is on record?
Its value is “low polyreactivity”.

For “QVQLVESGGGLVQAGGSLRLSCAASGRIFYLYAMGWYRQAPGKERELVATINSGGSTKYADSVKGRFTISRDNAKNTVYLQMNSLKPEDTAVYYCNAKRWKDYYPYQSWKYGYWGQGTQVTVSS”, which “polyreactivity (PSR sort gate)” value is on record?
The value was “high polyreactivity”.

With “QVQLVESGGGLVQAGGSLRLSCAASGRIFYNNAMGWYRQAPGKERELVAAITYSGGSTYYADSVKGRFTISRDNAKNTVYLQMNSLKPEDTAVYYCAAEYYGPYSEGGESYDYWGQGTQVTVSS” as the sequence, how does the “polyreactivity (PSR sort gate)” value read?
The value was “low polyreactivity”.

For “QVQLVESGGGLVQAGGSLRLSCAASGRIFYPNAKGWYIQAPGKETELVAVIRSRGGSTYYADSVKGRFTISRDNAKNTVYLQMNSLKPEDTAVYYCAARWVGRRTKYDYWGQGTQVTVSS”, which “polyreactivity (PSR sort gate)” value is on record?
The value was “high polyreactivity”.
